Data published in PMC9300723.

Biological target: F5M-σ^A1.1^(S2C), fluorescein-labelled σ1.1 domain of Pae σ^A (Pseudomonas aeruginosa)
Assay: fluorescence polarisation; 2 nM fluorescein-labelled σ1.1 domain, Pae RNAP core enzyme 0-4096 nM; 10 mM Tris-HCl pH 7.7, 100 mM NaCl, 1 mM DTT, 1% glycerol, 0.025% Tween-20; 10 min at room temperature

Substance: Pae RNAP core enzyme (from UniProt O52760 1-333; Q51561 1-1357; Q9HWC9 2-1399; B7V5M8 1-88) (complex)
- Kd: 220 nM
